Patent publication US20240400715A1 (VIBRANT PHARMA, published 2024)

T1: human CEA (CEACAM5) on tumor cells (human, UniProt P06731 35-702)
T1 sequence (looked up): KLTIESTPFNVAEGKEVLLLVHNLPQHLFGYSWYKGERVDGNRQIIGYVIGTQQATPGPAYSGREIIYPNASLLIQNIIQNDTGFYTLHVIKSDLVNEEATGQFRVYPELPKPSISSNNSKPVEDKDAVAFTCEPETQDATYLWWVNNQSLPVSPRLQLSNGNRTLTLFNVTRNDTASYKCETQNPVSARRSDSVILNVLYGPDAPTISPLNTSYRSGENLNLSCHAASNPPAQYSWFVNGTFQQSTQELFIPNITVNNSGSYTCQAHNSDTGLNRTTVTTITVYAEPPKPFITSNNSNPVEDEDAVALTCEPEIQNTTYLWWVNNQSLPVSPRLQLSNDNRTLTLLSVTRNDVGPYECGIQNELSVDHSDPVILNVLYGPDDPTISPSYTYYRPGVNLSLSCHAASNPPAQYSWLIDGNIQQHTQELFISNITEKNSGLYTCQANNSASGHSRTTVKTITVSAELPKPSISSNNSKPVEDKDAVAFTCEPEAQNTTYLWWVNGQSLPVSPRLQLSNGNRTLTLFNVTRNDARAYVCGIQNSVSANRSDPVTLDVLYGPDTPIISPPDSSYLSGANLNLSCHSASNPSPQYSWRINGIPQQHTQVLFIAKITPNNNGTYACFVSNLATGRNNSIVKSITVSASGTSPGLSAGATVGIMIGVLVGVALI


Assays:
[1] = biological target: T1, human CEA (CEACAM5) on tumor cells; test: cell-based or functional assay
[2] = biological target: T1, human CEA (CEACAM5) on tumor cells; test: cell-based or functional assay; remark: listed apart in the source
[3] = biological target: T2, keyhole limpet haemocyanin (KLH, Sigma, H8283) (keyhole limpet, UniProt Q10583 17-3414; Q10584 20-3421, limits assumed); test: ELISA, KLH coated at 5 ug/mL, 100 nM antibody, anti-human IgG-HRP
T2 construct: Bought preparation coated on the plate in the polyspecificity ELISA
Protocol: (§1) (1) Antigen coating: cardiolipin (Sigma, cat. C0563), keyhole limpet haemocyanin (KLH, Sigma, H8283), LPS (Sigma, L6529), ssDNA (Sigma, D8899), dsDNA (Sigma, D4522) and Insulin (abs42019847) were plated at 50 μg/mL, 5 μg/mL, 10 μg/mL, 1 μg/mL, 1 μg/mL, g/mL, and 50 μL per well, and incubated at 4° C. overnight;
(§2) (4) 50 μl anti-human IgG-HRP conjugate (Sigma, AP113P, 1:8000 dilution) was added to each well; the plate was incubated for 1 h at room temperature and washed 6 times with 0.05% PBST;

[4] = biological target: T3, Insulin (abs42019847); test: ELISA, insulin coated on the plate, 100 nM antibody, anti-human IgG-HRP
T3 construct: Coated on the plate in the polyspecificity ELISA
Protocol: as §1, §2

[5] = biological target: the molecule itself; test: BLI self-interaction: antibody captured on AHQ anti-human Fc sensor, free sites blocked with human IgG, same antibody in solution
Protocol: The bispecific antibodies were diluted to 1 μM, and the proteins were coupled to the surface of the AHQ sensor chip in PBS, and the signal value was ˜0.8 nm. […] The experimental parameters are as follows: Baseline1: 60s, Loading: 180s, Loading response: 0.8 nm, Baseline2: 180s, Association: 240s, High sensitivity kinetics: 2 Hz.

[6] = biological target: T4, human HER2 on tumor cells (human, UniProt P04626 23-1255); test: cell-based or functional assay
[7] = biological target: T4, human HER2 on tumor cells; test: cell-based or functional assay; remark: listed apart in the source
[8] = biological target: T5, recombinant tumor antigen human HER2 (ERBB2, ACRO systems, HE2-H5212) (human, UniProt P04626 23-652); test: BLI (Octet RED96e), antibody captured on AHC anti-human Fc sensor, HER2 as analyte, 30 C, 1:1 fit
T5 construct: Bought recombinant protein
Description: After the chip captures the bispecific antibodies, it was allowed to bind and dissociate with different concentrations of analytes to obtain the KD value of the interaction. The experimental parameters are as follows: Baseline1: 60s, Loading: 240s, Baseline2: 180s, Association: 240s, Dissociation: 600s, Loading Response: 1.9-2.1 (nm), High sensitivity kinetics: 2 Hz. Kinetic constants were derived based on 1:1 Langmuir binding to obtain equilibrium dissociation constants (KD).

Row | Absorbance value (450 nm, polyspecificity ELISA) [3] | Absorbance value (450 nm, polyspecificity ELISA) [4] | Binder | EC50 of tumor cell killing, MDA-MB-468 cells with human PBMC (E:T 10:1, 3 days, CCK8) [1] [nM] | EC50 of tumor cell killing, NCI-H1573 cells with human PBMC (E:T 10:1, 3 days, CCK8) [1] [nM] | EC50 of tumor cell killing, SK-OV-3 cells with human PBMC (E:T 10:1, 3 days, CCK8) [1] [nM] | EC50 of tumor cell killing, MCF-7 cells with human PBMC (E:T 10:1, 3 days, CCK8) [2] [nM] | EC50 of tumor cell killing, MDA-MB-453 cells with human PBMC (E:T 10:1, 3 days, CCK8) [2] [nM] | EC50 of tumor cell killing, N87 cells with human PBMC (E:T 10:1, 3 days, CCK8) [2] [nM] | BLI-Response (self-interaction signal) [5] [nm] | also measured
1 | 1.05 | 2.02 | bispecific antibody 101 (Fab-Knob+CEA-Hole) (bispecific antibody, human IgG4 S228P, kappa, F234A L235A, Human IgG4 Fc with knob-into-hole, kappa light chain) heavy: EVKLLESGGGLVQPKGSLKLSCAASGFTFNTYAMNWVRQAPGKGLEWVARIRSKYNNYATYYADSVKDRFTISRDDSQSILYLQMNNLKTEDTAMYYCVRHGNFGNSYVSWFAYWGQGTLVTVSSASTKGPSVFPLAPCSRSTSESTAALGCLVKDYFPEPVTVSWNSGALTSGVHTFPAVLQSSGLYSLSSVVTVPSSSLGTKTYTCNVDHKPSNTKVDKRVESKYGPPCPPCPAPEAAGGPSVFLFPPKPKDTLMISRTPEVTCVVVDVSQEDPEVQFNWYVDGVEVHNAKTKPREEQFNSTYRVVSVLTVLHQDWLNGKEYKCKVSNKGLPSSIEKTISKAKGQPREPQVYTLPPCQEEMTKNQVSLWCLVKGFYPSDIAVEWESNGQPENNYKTTPPVLDSDGSFFLYSRLTVDKSRWQEGNVFSCSVMHEALHNHYTQKSLSLSL EVQLVESGGGFVQAGESLTLSCTSSTLTFTPYRMAWYRQAPGKQRDLVADISSGDGRTTNYADFAKGRFTISRDNIKNTVFLRMTNLKPEDTAVYYCNTFVSFVGIARSWGQGTQVTVSSESKYGPPCPPCPAPEAAGGPSVFLFPPKPKDTLMISRTPEVTCVVVDVSQEDPEVQFNWYVDGVEVHNAKTKPREEQFNSTYRVVSVLTVLHQDWLNGKEYKCKVSNKGLPSSIEKTISKAKGQPREPQVCTLPPSQEEMTKNQVSLSCAVKGFYPSDIAVEWESNGQPENNYKTTPPVLDSDGSFFLVSRLTVDKSRWQEGNVFSCSVMHEALHNRFTQKSLSLSL light: QAVVTQESALTTSPGETVTLTCRSSTGAVTTSNYANWVQEKPDHLFTGLIGGTNKRAPGVPARFSGSLIGDKAALTITGAQTEDEAIYFCALWYSNLWVFGGGTKVEIKRTVAAPSVFIFPPSDEQLKSGTASVVCLLNNFYPREAKVQWKVDNALQSGNSQESVTEQDSKDSTYSLSSTLTLSKADYEKHKVYACEVTHQGLSSPVTKSFNRGEC | 1.16 | 0.00287 | 1 | 8.01 | 8.35 | 0.2 | 0.21 | –
2 | 1.08 | 2.88 | bispecific antibody 104 (CEA-Knob+Fab-Hole) (bispecific antibody, human IgG4 S228P, kappa, F234A L235A, Human IgG4 Fc with knob-into-hole, kappa light chain) EVQLVESGGGFVQAGESLTLSCTSSTLTFTPYRMAWYRQAPGKQRDLVADISSGDGRTTNYADFAKGRFTISRDNIKNTVFLRMTNLKPEDTAVYYCNTFVSFVGIARSWGQGTQVTVSSESKYGPPCPPCPAPEAAGGPSVFLFPPKPKDTLMISRTPEVTCVVVDVSQEDPEVQFNWYVDGVEVHNAKTKPREEQFNSTYRVVSVLTVLHQDWLNGKEYKCKVSNKGLPSSIEKTISKAKGQPREPQVYTLPPCQEEMTKNQVSLWCLVKGFYPSDIAVEWESNGQPENNYKTTPPVLDSDGSFFLYSRLTVDKSRWQEGNVFSCSVMHEALHNHYTQKSLSLSL heavy: EVKLLESGGGLVQPKGSLKLSCAASGFTFNTYAMNWVRQAPGKGLEWVARIRSKYNNYATYYADSVKDRFTISRDDSQSILYLQMNNLKTEDTAMYYCVRHGNFGNSYVSWFAYWGQGTLVTVSSASTKGPSVFPLAPCSRSTSESTAALGCLVKDYFPEPVTVSWNSGALTSGVHTFPAVLQSSGLYSLSSVVTVPSSSLGTKTYTCNVDHKPSNTKVDKRVESKYGPPCPPCPAPEAAGGPSVFLFPPKPKDTLMISRTPEVTCVVVDVSQEDPEVQFNWYVDGVEVHNAKTKPREEQFNSTYRVVSVLTVLHQDWLNGKEYKCKVSNKGLPSSIEKTISKAKGQPREPQVCTLPPSQEEMTKNQVSLSCAVKGFYPSDIAVEWESNGQPENNYKTTPPVLDSDGSFFLVSRLTVDKSRWQEGNVFSCSVMHEALHNRFTQKSLSLSL light: QAVVTQESALTTSPGETVTLTCRSSTGAVTTSNYANWVQEKPDHLFTGLIGGTNKRAPGVPARFSGSLIGDKAALTITGAQTEDEAIYFCALWYSNLWVFGGGTKVEIKRTVAAPSVFIFPPSDEQLKSGTASVVCLLNNFYPREAKVQWKVDNALQSGNSQESVTEQDSKDSTYSLSSTLTLSKADYEKHKVYACEVTHQGLSSPVTKSFNRGEC | 0.672 | 0.00384 | 0.987 | 8.63 | 1.96 | 0.0972 | 0.22 | –
3 | 1.45 | 1.52 | HER2-CD3 bispecific antibody 501 (bispecific antibody, human IgG4 S228P, kappa, F234A L235A) heavy: EVKLLESGGGLVQPKGSLKLSCAASGFTFNTYAMNWVRQAPGKGLEWVARIRSKYNNYATYYADSVKDRFTISRDDSQSILYLQMNNLKTEDTAMYYCVRHGNFGNSYVSWFAYWGQGTLVTVSSASTKGPSVFPLAPCSRSTSESTAALGCLVKDYFPEPVTVSWNSGALTSGVHTFPAVLQSSGLYSLSSVVTVPSSSLGTKTYTCNVDHKPSNTKVDKRVESKYGPPCPPCPAPEAAGGPSVFLFPPKPKDTLMISRTPEVTCVVVDVSQEDPEVQFNWYVDGVEVHNAKTKPREEQFNSTYRVVSVLTVLHQDWLNGKEYKCKVSNKGLPSSIEKTISKAKGQPREPQVYTLPPCQEEMTKNQVSLWCLVKGFYPSDIAVEWESNGQPENNYKTTPPVLDSDGSFFLYSRLTVDKSRWQEGNVFSCSVMHEALHNHYTQKSLSLSL QVQLVQSGGGLVQAGGSLRLSCAASGRTFSSYAMAWFRQAPGKEREFVAAISWSGANIYVADSVKGRFTISRDNAKDTVYLQMNSLKPEDTAVYYCAVKLGFAPVEERQYDYWGQGTQVTVSSESKYGPPCPPCPAPEAAGGPSVFLFPPKPKDTLMISRTPEVTCVVVDVSQEDPEVQFNWYVDGVEVHNAKTKPREEQFNSTYRVVSVLTVLHQDWLNGKEYKCKVSNKGLPSSIEKTISKAKGQPREPQVCTLPPSQEEMTKNQVSLSCAVKGFYPSDIAVEWESNGQPENNYKTTPPVLDSDGSFFLVSRLTVDKSRWQEGNVFSCSVMHEALHNRFTQKSLSLSL light: QAVVTQESALTTSPGETVTLTCRSSTGAVTTSNYANWVQEKPDHLFTGLIGGTNKRAPGVPARFSGSLIGDKAALTITGAQTEDEAIYFCALWYSNLWVFGGGTKVEIKRTVAAPSVFIFPPSDEQLKSGTASVVCLLNNFYPREAKVQWKVDNALQSGNSQESVTEQDSKDSTYSLSSTLTLSKADYEKHKVYACEVTHQGLSSPVTKSFNRGEC | – | – | – | – | – | – | 0.056 | EC50 of tumor cell killing, MDA-MB-468 cells with human PBMC (E:T 10:1, 3 days, CCK8) [6]: 1.79 nM; EC50 of tumor cell killing, NCI-H1573 cells with human PBMC (E:T 10:1, 3 days, CCK8) [6]: 0.0405 nM; EC50 of tumor cell killing, NCI-H1650 cells with human PBMC (E:T 10:1, 3 days, CCK8) [6]: 1.59 nM; EC50 of tumor cell killing, NCI-H2228 cells with human PBMC (E:T 10:1, 3 days, CCK8) [6]: 10.2 nM; EC50 of tumor cell killing, SK-OV-3 cells with human PBMC (E:T 10:1, 3 days, CCK8) [6]: 0.0198 nM; EC50 of tumor cell killing, MCF-7 cells with human PBMC (E:T 10:1, 3 days, CCK8) [7]: 8.29 nM; EC50 of tumor cell killing, MDA-MB-453 cells with human PBMC (E:T 10:1, 3 days, CCK8) [7]: 4.05 nM; EC50 of tumor cell killing, N87 cells with human PBMC (E:T 10:1, 3 days, CCK8) [7]: 1.32 nM; EC50 of tumor cell killing, NCI-H157 cells with human PBMC (E:T 10:1, 3 days, CCK8) [7]: 36.2 nM; EC50 of tumor cell killing, NCI-H441 cells with human PBMC (E:T 10:1, 3 days, CCK8) [7]: 0.152 nM; Kd [8]: 13.1 nM; koff [8]: 0.00349 s⁻¹; kon [8]: 266000 M⁻¹ s⁻¹
